Tests used:
[1] = target: T1, human trk proto-oncogene product gp140^trk (human, UniProt P04629 33-796); assay: Scatchard analysis, [125I]-βNGF on E25-48 cells at 4°C, high affinity receptors
T1 construct: whole, on cells; also called trk tyrosine protein kinase; trk receptor

[2] = target: T1, human trk proto-oncogene product …; assay: Scatchard analysis, [125I]-βNGF on Sf9 cells infected with pAcS2, high affinity receptors
[3] = target: T1, human trk proto-oncogene product …; assay: cell-based or functional assay
[4] = target: T2, mouse trkB tyrosine protein kinase gp145^trkB (mouse, UniProt P15209 32-821); assay: cell-based or functional assay
T2 sequence (P15209 32-821): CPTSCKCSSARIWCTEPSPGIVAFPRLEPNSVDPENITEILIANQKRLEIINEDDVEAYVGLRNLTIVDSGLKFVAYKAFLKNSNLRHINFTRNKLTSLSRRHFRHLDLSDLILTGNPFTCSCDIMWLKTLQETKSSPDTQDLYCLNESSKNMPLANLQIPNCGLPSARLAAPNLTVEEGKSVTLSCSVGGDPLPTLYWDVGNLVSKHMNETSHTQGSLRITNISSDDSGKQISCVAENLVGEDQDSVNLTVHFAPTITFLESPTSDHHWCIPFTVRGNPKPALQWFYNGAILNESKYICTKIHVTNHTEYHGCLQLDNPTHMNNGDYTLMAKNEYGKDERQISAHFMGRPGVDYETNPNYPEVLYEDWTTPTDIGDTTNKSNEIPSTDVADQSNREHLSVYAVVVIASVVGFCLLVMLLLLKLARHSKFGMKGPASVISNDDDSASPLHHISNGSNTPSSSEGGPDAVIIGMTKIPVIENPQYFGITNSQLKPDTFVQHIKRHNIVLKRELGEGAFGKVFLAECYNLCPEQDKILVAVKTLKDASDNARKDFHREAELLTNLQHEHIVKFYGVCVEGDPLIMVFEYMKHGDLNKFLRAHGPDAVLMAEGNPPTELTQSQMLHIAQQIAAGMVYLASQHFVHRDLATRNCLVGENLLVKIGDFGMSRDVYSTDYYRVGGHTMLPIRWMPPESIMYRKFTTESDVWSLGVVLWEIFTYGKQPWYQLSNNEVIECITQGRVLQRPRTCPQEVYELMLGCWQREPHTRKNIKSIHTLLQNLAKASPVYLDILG

[5] = target: T1, human trk proto-oncogene product …; assay: Scatchard analysis, [125I]-βNGF on E25-48 cells at 4°C, low affinity receptors
[6] = target: T1, human trk proto-oncogene product …; assay: Scatchard analysis, [125I]-βNGF on Sf9 cells infected with pAcS2, low affinity receptors
[7] = target: T3, endogenous trk proto-oncogene product of rat PC12 cells (rat, UniProt P35739 33-799); assay: Scatchard analysis, [125I]-βNGF on PC12 cells at 4°C, high affinity receptors
T3 construct: whole, on cells; also called PC12 endogenous trk proto-oncogene product; gp140^trk of PC12 cells
T3 sequence (P35739 33-799): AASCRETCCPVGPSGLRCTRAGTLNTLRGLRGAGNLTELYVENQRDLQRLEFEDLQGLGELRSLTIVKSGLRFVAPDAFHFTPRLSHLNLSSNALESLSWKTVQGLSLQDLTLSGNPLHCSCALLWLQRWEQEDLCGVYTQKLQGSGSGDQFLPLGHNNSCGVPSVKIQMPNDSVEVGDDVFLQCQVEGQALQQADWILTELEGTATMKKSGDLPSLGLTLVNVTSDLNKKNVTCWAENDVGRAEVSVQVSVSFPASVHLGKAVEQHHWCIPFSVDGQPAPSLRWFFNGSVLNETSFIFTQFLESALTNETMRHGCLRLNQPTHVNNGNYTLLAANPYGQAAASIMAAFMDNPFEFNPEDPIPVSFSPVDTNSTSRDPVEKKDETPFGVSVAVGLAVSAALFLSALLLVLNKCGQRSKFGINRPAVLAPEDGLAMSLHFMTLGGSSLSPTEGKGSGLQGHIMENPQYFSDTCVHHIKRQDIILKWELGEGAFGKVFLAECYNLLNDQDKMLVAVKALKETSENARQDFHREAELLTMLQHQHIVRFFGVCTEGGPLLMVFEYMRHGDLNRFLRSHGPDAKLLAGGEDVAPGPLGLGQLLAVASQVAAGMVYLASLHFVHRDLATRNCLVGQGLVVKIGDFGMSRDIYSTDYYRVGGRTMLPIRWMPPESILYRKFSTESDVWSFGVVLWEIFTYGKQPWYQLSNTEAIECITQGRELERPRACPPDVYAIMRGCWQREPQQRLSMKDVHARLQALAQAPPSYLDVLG

[8] = target: T1, human trk proto-oncogene product …; assay: Scatchard analysis, [125I]-βNGF on E25-427 cells at 4°C, low affinity receptors
[9] = target: T2, mouse trkB tyrosine protein kinase …; assay: [125I]-βNGF binding to cells at 4°C
[10] = target: T4, rat low affinity NGF receptor gp80^LNGFR (rat, UniProt P07174 30-425); assay: Scatchard analysis, [125I]-βNGF on PC12 cells at 4°C, low affinity receptors
T4 construct: whole, on cells
T4 sequence (looked up): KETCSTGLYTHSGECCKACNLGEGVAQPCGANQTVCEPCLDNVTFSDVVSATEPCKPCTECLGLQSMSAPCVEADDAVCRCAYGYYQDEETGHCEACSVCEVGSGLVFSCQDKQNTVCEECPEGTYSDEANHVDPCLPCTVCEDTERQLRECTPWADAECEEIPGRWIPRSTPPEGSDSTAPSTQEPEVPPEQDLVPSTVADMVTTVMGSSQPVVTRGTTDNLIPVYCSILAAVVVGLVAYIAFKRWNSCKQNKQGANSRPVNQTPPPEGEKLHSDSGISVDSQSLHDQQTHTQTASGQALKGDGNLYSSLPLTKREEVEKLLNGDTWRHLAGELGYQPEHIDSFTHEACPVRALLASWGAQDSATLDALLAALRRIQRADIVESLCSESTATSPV

[11] = target: T1, human trk proto-oncogene product …; assay: cell-based or functional assay; remark: listed apart in the source
[12] = target: T1, human trk proto-oncogene product …; assay: Scatchard analysis, [125I]-βNGF on E25-427 cells at 4°C, high affinity receptors
[13] = target: T2, mouse trkB tyrosine protein kinase …; assay: cell-based or functional assay; remark: listed apart in the source
[14] = target: T1, human trk proto-oncogene product …; assay: competition with [125I]-NGF on E25-48 cells
[15] = target: mutant mouse trkB receptor gp145^trkB/S345 (mouse, UniProt P15209 32-821); assay: cell-based or functional assay
mutant mouse trkB receptor gp145^trkB/S345, sequence (P15209 other isoform, or with tags, fused parts or gaps mutant): as the sequence (P15209 32-821) above, with C314S counted along it

[16] = target: T5, porcine trkC product gp145^trkC (porcine); assay: Scatchard analysis, [125I]-NT-3 on R4-31 cells at 4°C, high affinity sites
T5 construct: Expressed from pFL20 in NIH3T3 cells (R4-31); also called trkC receptor

[17] = target: T1, human trk proto-oncogene product …; assay: cell-based or functional assay; remark: listed apart in the source
[18] = target: T5, porcine trkC product gp145^trkC; assay: Scatchard analysis, [125I]-NT-3 on R4-31 cells at 4°C, low affinity sites

T1 sequence (P04629 33-796): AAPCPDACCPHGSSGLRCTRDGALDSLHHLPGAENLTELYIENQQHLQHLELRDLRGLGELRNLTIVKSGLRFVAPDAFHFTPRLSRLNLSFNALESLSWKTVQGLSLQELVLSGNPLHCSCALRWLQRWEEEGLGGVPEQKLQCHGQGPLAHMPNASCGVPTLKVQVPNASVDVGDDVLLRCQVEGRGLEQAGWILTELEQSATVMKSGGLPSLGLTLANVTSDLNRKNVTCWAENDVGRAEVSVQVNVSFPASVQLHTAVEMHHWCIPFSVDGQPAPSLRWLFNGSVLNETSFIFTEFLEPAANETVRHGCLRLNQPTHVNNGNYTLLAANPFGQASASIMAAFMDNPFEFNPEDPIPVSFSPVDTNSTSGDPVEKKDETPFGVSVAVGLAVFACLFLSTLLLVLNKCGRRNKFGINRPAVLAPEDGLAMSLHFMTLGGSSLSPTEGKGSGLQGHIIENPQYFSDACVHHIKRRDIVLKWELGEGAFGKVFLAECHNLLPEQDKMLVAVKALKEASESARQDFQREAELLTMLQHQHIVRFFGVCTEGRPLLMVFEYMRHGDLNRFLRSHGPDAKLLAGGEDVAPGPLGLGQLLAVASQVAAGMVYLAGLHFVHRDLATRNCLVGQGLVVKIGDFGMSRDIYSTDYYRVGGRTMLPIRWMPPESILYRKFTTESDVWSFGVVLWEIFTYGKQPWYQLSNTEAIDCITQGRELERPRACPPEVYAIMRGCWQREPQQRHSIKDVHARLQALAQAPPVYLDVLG

B1: murine 2.5S NGF (βNGF) (ligand, UniProt P01139 122-241, looked up)
chain: SSTHPVFHMGEFSVCDSVSVWVGDKTTATDIKGKEVTVLAEVNINNSVFRQYFFETKCRASNPVESGCRGIDSKHWNSYCTTTHTFVKALTTDEKQAAWRFIRIDTACVCVLSRKATRRG
modifications: 125I label where used as tracer
notes: mature; The background says that βNGF exists as a 26,000 d homodimer; also called [125I]-labeled βNGF; [125I]-NGF
Q: Which Kd [1] does the source give for B1 here?
A: 0.09 nM

Q: What about the Kd [2] of the same binder?
A: 0.42 nM

Q: What about the “transforming activity of neurotrophic factor DNA in the presence of trk DNA” value (from here on “transforming activity … of trk DNA”) [3] of the same binder?
A: 20000 ffu per µg of DNA

Q: And the “transforming activity of neurotrophic factor DNA in the presence of trkB DNA” value (“transforming activity … of trkB DNA” for short) [4]?
A: < 1 ffu per µg of DNA

Q: And the Kd [5]?
A: 2.4 nM

Q: What about the Kd [6] of the same binder?
A: 13.7 nM

Q: And the Kd [7]?
A: 0.3 nM

Q: And the Kd [8]?
A: 7 nM

Q: Does B1 bind [9]?
A: no binding (tested: 1 nM)

Q: What about the Kd [10] of the same binder?
A: 33.2 nM

Q: What about the “NGF stimulation of agar colonies, 10^3 E25-48 cells” value [11] of the same binder?
A: 9 fold

Q: And the “NGF stimulation of agar colonies, 10^4 E25-48 cells” value [11]?
A: 7 fold

Q: And the Kd [12]?
A: 0.12 nM

B2: Xenopus laevis neurotrophin-4 (XNT-4) (ligand, UniProt P24727 114-236, looked up)
chain: ASGSDSVSLSRRGELSVCDSVNVWVTDKRTAVDDRGKIVTVMSEIQTLTGPLKQYFFETKCNPSGSTTRGCRGVDKKQWISECKAKQSYVRALTIDANKLVGWRWIRIDTACVCTLLSRTGRT
Q: For B2, which “transforming activity with gp145^trkB, against BDNF” value [13] is on record?
A: 5 fold lower than BDNF

B3: human brain-derived neurotrophic factor (BDNF) (ligand, UniProt P23560 129-247, looked up)
chain: HSDPARRGELSVCDSISEWVTAADKKTAVDMSGGTVTVLEKVPVSKGQLKQYFYETKCNPMGYTKEGCRGIDKRHWNSQCRTTQSYVRALTMDSKKRIGWRFIRIDTSCVCTLTIKRGR
modifications: 125I (Bolton-Hunter) where used as tracer in Example 5
notes: mature; also called [125I]-BDNF
Q: Does B3 bind [14]?
A: no binding (tested: 500 ng/ml)

Q: What about the “transforming activity … of trk DNA” value [3] of the same binder?
A: < 1 ffu per µg of DNA

Q: What about the “transforming activity … of trkB DNA” value [4] of the same binder?
A: 40000 ffu per µg of DNA

Q: What about the “efficiency in mediating the response to BDNF, against wild type gp145^trkB” value [15] of the same binder?
A: ~10 fold less efficient than wild type

B4: human neurotrophin-3 (NT-3) (ligand, UniProt P20783 139-257, looked up)
chain: YAEHKSHRGEYSVCDSESLWVTDKSSAIDIRGHQVTVLGEIKTGNSPVKQYFYETRCKEARPVKNGCRGIDDKHWNSQCKTSQTYVRALTSENNKLVGWRWIRIDTSCVCALSRKIGRT
modifications: 125I (Bolton-Hunter) where used as tracer
notes: mature; also called [125I]-labeled NT-3
Q: How did the Kd [16] turn out when B4 was run?
A: 0.026 nM

Q: What about the “transforming activity … of trk DNA” value [3] of the same binder?
A: 300 ffu per µg of DNA

Q: What about the “transforming activity … of trkB DNA” value [4] of the same binder?
A: 100 ffu per µg of DNA

Q: What about the “efficiency in transformation assays with pDM69, against NGF” value [17] of the same binder?
A: 200 fold less efficient than NGF

Q: What about the “transformation efficiency with pFRK44, against BDNF” value [13] of the same binder?
A: 500 fold lower

Q: And the Kd [18]?
A: 4 nM

From EP0504914A2 (E.R. SQUIBB & SONS, INC., dated 1992)
